Consider one protein from publication PMC2879331 (Clinical cancer research : an official journal of the …, 2008).

This series deals with the molecule itself. In words: non-reducing SDS-PAGE.

B1: matrix metalloprotease 9 (MMP-9) (enzyme)
chain: not shown
In the case of B1, the “stoichiometry N” value is 2.
